Laboratory results reported in patent US20100197009A1.

Tests used:
[1] = target: biotinylated HLA-A2-AviTag/MelanApeptide/β2 microglobulin complex; experiment: flow cytometry of streptavidin M280 beads coated with 0.015 µg of the biotinylated complex, stained with FITC anti-HLA ABC
[2] = target: biotinylated HLA-A2-AviTag/MelanApeptide/β2 microglobulin complex; experiment: flow cytometry of streptavidin M280 beads coated with the biotinylated complex (saturating, 2 µg), stained with FITC anti-HLA ABC
[3] = target: biotinylated HLA-A2-AviTag/MelanApeptide/β2 microglobulin complex; experiment: flow cytometry of streptavidin M280 beads saturated with the biotinylated complex, stained with anti-HLA-ABC, legend of FIG. 4

MFI [1]: 24.5 MFI | MFI [2]: 300 MFI | MFI [3]: 305 MFI
Substance: streptavidin on M280 beads (Dynal) (from UniProt P22629 37-163)
